From patent US7960140B2, “Avidin mutants” (Orion Diagnostica Oy, priority 2003, dated 2011)

Assays:
[1] = Dissociation assay with fluorescent biotin conjugate (ArcDia BF560); assay type: binding
Protocol: The biotin-binding properties of produced mutagenised dcAvds were analysed by method based on the quenching of biotin-coupled fluorescent probe ArcDia BF560 (ArcDia Ltd., Turku, Finland) due to binding to avidin (FIG. 4). PerkinElmer LS55 luminometer was used for measurements. […] The spectra of 50 nM biotin-Bf560 solution in 50 mM Na-phosphate containing 650 mM NaCl was measured (red). Chicken avidin (Belovo S. A., Bastogne, Belgium) was added to final subunit concentration of 83 nM and green spectra was obtained.
Briefly, 50 nM free biotin-Bf560 solution in 50 mM Na-phosphate containing 650 mM NaCl was measured using excitation at 560 nm (2.5 nm slit) and emission was collected at 578 nm (5 nm slit). Continuous stirring (setting low) was used throughout the analysis. After 100 sec measurement, the protein under study was added to final biotin-binding subunit concentration 50 nM and the measurement was continued for 500 sec. […]
A one-phase dissociation model was used to analyse the data, as described elsewhere (Hytönen et al., (2004) Biochem J, in press). The dissociation rate constant (kdiss) was determined by fitting the equation −kdisst=ln(B/Bo) to the data. Bo is the measured maximum binding (100%) determined as the difference between the fluorescence of the free dye and the fluorescence of the protein-dye complex, and B is the amount of complex measured as a function of time. The first 500 seconds were omitted from the data to abolish the effect of the fast initial phase characteristic of avidin-BF560-biotin interaction (FIG. 9). The fraction of fluorescent biotin released after one-hour was determined, as well as the times of half-maximal (t½) and quarter-maximal (t¼) release. For dual chain avidins with modified binding sites, it was hypothesized that 50% of the binding sites would behave like those of wt avidin (cpAvd5S4 binding site of dcAvd was not modified). The dissociation data measured for wt avidin divided by two was subtracted from the data measured for the modified dual chain avidins and the dissociation curve was fitted to the difference as above.

[2] = Free biotin-binding sites by quenching of intrinsic fluorescence on biotin titration
Protocol: The number of free binding sites was determined based on the quenching of the intrinsic fluorescence of avidin due to binding of biotin (Laitinen et al., (2003) J. Biol. Chem. 278, 4010-4014). The protein sample under study diluted to 2 ml volume in 50 mM NaPO4 pH 7.0+650 mM NaCl was titrated with 1 μl additions of 70 μM biotin solution in the same buffer. The protein concentration in this assay was 500±15 nM, and the concentration was determined by comparing the emission intensity averaged over 340-350 nm (excitation at 280 nm) to avidin standard sample. The protein sample was continuously mixed by magnetic stirrer.
Intensity from each biotin concentration was averaged over eight second measurement. The end-point of the quenching was determined by fitting a line to obtained data and determining the total quenching by averaging the last three measured intensities (FIG. 12, Table 6).

[3] = Microplate temperature stability assay; assay type: physicochemical
Protocol: FIG. 13. Temperature sensitivity determined by microplate assay. The avidin, dcAvd and scAvd sample is treated with the indicated temperature for certain time and the ability to bind biotinylated alkaline phosphatase was determined by coating the microplate with the sample.
The stability of the protein was studied by microplate assay as described in the article by Nordlund et al., (2003) J Biol Chem 278, 2479-83. In this assay, 50 mM Na—PO4 buffer containing 100 mM NaCl was used and the protein was heated to 80° C. or 90° C. for certain time. After that, the capacity to bind fluorescent biotin was measured as described in the article by Nordlund et al., (2003) J Biol Chem 278, 2479-83.

[4] = Radiobiotin dissociation assay; assay type: binding; conditions: various temperatures
Protocol: FIG. 11. Radiobiotin dissociation assay for scAvd. Temperature-dependence of biotin dissociation rates measured by the [3H]biotin dissociation assay. Dissociation rate constant of radiobiotin was determined at various temperatures. The dissociation rate constants determined previously for avidin and streptavidin are also shown. The determined kdiss-values are connected by lines.
Radiobiotin assay was performed for scAvd in various temperatures.

quenching measured for whole emission spectrum (290-500 nm) due to biotin binding ([2]; 290-500 nm): 39.7%
Fluorescence quenching (350 nm) ([2]; intrinsic fluorescence, emission 350 nm, due to binding of biotin): 44.4%
Number of free biotin-binding sites per quaternary unit ([2]; protein 500±15 nM, titrated with biotin): 3.2
B1: scAvd: single-chain avidin, two dcAvd fused tail-to-head via 12 amino-acid linker GGSGSGSGSGSG (SEQ ID NO:24) (protein, listed as Gallus gallus)
chain: MVHATSPLLLLLLLSLALVAPGLSARKRTQPTFGFTVNWKFSESTTVFTGQCFIDRNGKEVLKTMWLLRSSVNDIGDDWKATRVGINIFTRLRTQKEGGSGGSARKCSLTGKWTNDLGSNMTIGAVNSRGEFTGTYITAVTATSNEIKESPLHGTQNTINKSGGSTTVFTGQCFIDRNGKEVLKTMWLLRSSVNDIGDDWKATRVGINIFTRLRTQKEGGSGGSARKCSLTGKWTNDLGSNMTIGAVNSRGEFTGTYITAVTATSNEIKESPLHGTQNTINKRTQPTFGFTVNWKFSEGGSGSGSGSGSGRTQPTFGFTVNWKFSESTTVFTGQCFIDRNGKEVLKTMWLLRSSVNDIGDDWKATRVGINIFTRLRTQKEGGSGGSARKCSLTGKWTNDLGSNMTIGAVNSRGEFTGTYITAVTATSNEIKESPLHGTQNTINKSGGSTTVFTGQCFIDRNGKEVLKTMWLLRSSVNDIGDDWKATRVGINIFTRLRTQKEGGSGGSARKCSLTGKWTNDLGSNMTIGAVNSRGEFTGTYITAVTATSNEIKESPLHGTQNTINKRTQPTFGFTVNWKFSE
Dissociation of fluorescent biotin Release 1 h ([1]; 25° C.): 8.8%
Dissociation of fluorescent biotin kdiss ([1]; 25° C.): 1.3e-05 s⁻¹
Dissociation of fluorescent biotin Release 1 h ([1]; 50° C.): 62.3%
Dissociation of fluorescent biotin kdiss ([1]; 50° C.): 0.00025 s⁻¹
activity after 32 min treatment ([3]; 80° C., 32 min): 26%
heat inactivation ([3]; 90° C.): fast denaturation
heat inactivation ([3]; 100° C.): fast inactivation
dissociation of [3H]biotin [4]: extremely slow dissociation of [3H]biotin
